In patent US6485937:

Experiments:
[1] = biological target: HIV TAT trans-activating protein (wildtype TAT, His-tagged fusion)
[2] = biological target: carboxy terminal domain (CTD) of RNA polymerase II fused to GST (GST-CTD) [GST: P08515]

B1: FLAG-epitope tagged HIV tat interacting protein of 30 kDa (f-TIP30) (protein)
chain: DYKDDDDKMAETEALSKLREDFRMQNKSVFILGASGETGRVLLKEILEQGLFSKVTLIGRRKLTFDEEAYKNVNQEVVDFEKLDDYASAFQGHDVGFCCLGTTRGKAGAEGFVRVDRDYVLKSAELAKAGGCKHFNLLSSKGADKSSNFLYLQVKGEVEAKVEELKFDRYSVFRPGVLLCDRQESRPGEWLVRKFFGSLPDSWASGHSVPVVTVVRAMLNNVVRPRDKQMELLENKAIHDLGKAHGSLKP
In the case of B1, the “stimulation of f-TIP30 kinase activity on GST-CTD substrate (in vitro kinase assay)” value [1] is reported as “stimulate the kinase activity of recombinant f-TIP30 on GST-CTD substrate in a dose dependant manner” and the “in vitro kinase assay (phosphorylation of GST-CTD, [g-32P]ATP, autoradiography)” value [2] is reported as “it could phosphorylate the carboxy terminal domain (CTD) of RNA polymerase II fused to GST (GST-CTD) in an in vitro kinase assay”.
